In experiment [1] the target is T1, Y152A NKG2D-Fc (Example 5) (human).
T1 construct: also called non-natural Y152A NKG2D; not shown: Fc
T1 chain: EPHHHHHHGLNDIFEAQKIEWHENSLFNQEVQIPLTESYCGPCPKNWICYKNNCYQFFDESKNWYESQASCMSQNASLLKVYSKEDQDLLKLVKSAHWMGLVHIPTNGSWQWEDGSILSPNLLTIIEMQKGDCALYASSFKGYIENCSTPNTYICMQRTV
The experiment can be described thus: phage ELISA.

In experiment [2] the target is T2, human NKG2D-Fc (human, UniProt P26718 78-216).
T2 construct: also called natural NKG2D-Fc; not shown: Fc
T2 sequence (looked up): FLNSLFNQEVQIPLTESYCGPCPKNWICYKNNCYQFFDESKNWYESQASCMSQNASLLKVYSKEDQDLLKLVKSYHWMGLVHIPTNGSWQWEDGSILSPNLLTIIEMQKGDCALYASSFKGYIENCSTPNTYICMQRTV
The experiment can be described thus: competition ELISA vs coated WT sMICA, 2 nM human NKG2D-Fc. The text has this:
(§1) To the NKG2DLs in the above example, we directly attached heterologous molecules such as a polypeptide to each of these 4 modified α1-α2 NKG2DLs using a linker peptide. Four His-tagged proteins (SEQ ID NOs.: 25-28) consisting of modified NKG2DLs with attached heterologous molecules were expressed in insect cells and purified to characterize their NKG2D binding affinities and kinetic binding parameters. Using a competitive binding ELISA, we determined the relative NKG2D binding affinities of the 4 modified α1-α2 variants.

In experiment [3] the target is T3, biotinylated human NKG2D (Example 1) (human, UniProt P26718 78-216).
T3 construct: also called recombinant biotinylated NKG2D
T3 sequence (looked up): T2 sequence (looked up)
The experiment can be described thus: BLI (Octet), Kd = kOFF/kON.

For experiment [4], the target named is T3, biotinylated human NKG2D (Example 1). The experiment can be described thus: BLI (Octet), biotinylated human NKG2D coated, 100 nM analyte.
Experiment [5] addresses T2, human NKG2D-Fc. The experiment can be described thus: competition ELISA vs coated WT sMICA.
Source text: as §1

Positions count from the first letter of the chain named. Numbers in names are those of the source. A value given as a limit tells only on which side of the number the result lay.

B1: MICA25.17 (phage clone) (ligand)
chain: EPHSLRYNLTVLSWDGSVQSGFLTEVHLDGQPFLRCDRQKCRAKPQGQWAEDVLGNKTWDRETRDLTGWGTTLLMTLAHIKDQKEGLHSLQEIRVCEIHEDNSTRSSQHFYYDGELFLSQNLETLEWTMPQSSRAQTLAMNVRNFLKEDAMETDIGYRLMRADCLSELRRYLKSGVVLRRTV
As to B1, the “fold selective binding to Y152A NKG2D over natural NKG2D” value (“fold selective binding to Y152A NKG2D” for short) in experiment [1] is over 10 fold.

B2: MICA25.18 (phage clone) (ligand)
chain: B1 chain with T72F, L74R, I155R, G156S, Y157G, R158L
On to B2, for which, in experiment [1], the “fold selective binding to Y152A NKG2D” value was over 10 fold.

B3: ULBP2.S1 (phage clone) (ligand)
chain: AAEPHSLSYDITVIPKFRPGPRWCAVQGQVDEKTFLHYDCGNKTVTPVSPLGKKLNVTTAWKAQNPVLREVVDILTEQLWDIQLENYTPKEPLTLQARMSCEQKAEGHSSGSWQFSFDGQIFLLFDSEKRMWTTVHPGARKMKEKWENDKVVATTLYTWSMGDCIGWLEDFLMGMDSTLEPSAGAP
Consider B3, for which the “fold selective binding to Y152A NKG2D” value in experiment [1] was over 10 fold.

B4: ULBP2.S2 (phage clone) (ligand)
chain: B3 chain with T155L, L156M, Y157R, T158I
Turning to B4, in experiment [1], the “fold selective binding to Y152A NKG2D” value is over 10 fold.

B5: ULBP2.S3 (phage clone) (ligand)
chain: B3 chain with T155K, T158L
B5: in experiment [1], the “fold selective binding to Y152A NKG2D” value is over 10 fold.

B6: ULBP3.S1 (phage clone) (ligand)
chain: AAEPHSLWYNFTIIHLPRHGQQWCEVQSQVDQKNFLSYDCGSDKVLSMGHLEEQLYATDAWGKQLEMLREVGQRLRLELADTELEDFTPSGPLTLQVRMSCESEADGYIRGSWQFSFDGRKFLLFDSNNRKWTVVHAGARRMKEKWEKDSGLTTDLIRRSMGDCKSWLRDFLMHRKKRLEPTAP
As for B6, the “fold selective binding to Y152A NKG2D” value in experiment [1] is over 10 fold.

B7: ULBP3.S2 (phage clone) (ligand)
chain: B6 chain with D155Y, L156F, I157Y, R158L
On to B7, for which the “fold selective binding to Y152A NKG2D” value in experiment [1] was over 10 fold.

B8: WT α1-α2 domain (soluble wild-type MICA, titrated) (ligand, UniProt Q29983 24-204, looked up)
chain: EPHSLRYNLTVLSWDGSVQSGFLTEVHLDGQPFLRCDRQKCRAKPQGQWAEDVLGNKTWDRETRDLTGNGKDLRMTLAHIKDQKEGLHSLQEIRVCEIHEDNSTRSSQHFYYDGELFLSQNLETKEWTMPQSSRAQTLAMNVRNFLKEDAMKTKTHYHAMHADCLQELRRYLKSGVVLRRT
notes: domain: α1-α2; also called WT MICA; WT NKG2DL
Regarding B8, the IC50 in experiment [2] came to 19.4 nM.

B9: WED-MICA α1-α2 domain (N69W, K152E, K154D) (ligand)
chain: EPHSLRYNLTVLSWDGSVQSGFLTEVHLDGQPFLRCDRQKCRAKPQGQWAEDVLGNKTWDRETRDLTGWGKDLRMTLAHIKDQKEGLHSLQEIRVCEIHEDNSTRSSQHFYYDGELFLSQNLETKEWTMPQSSRAQTLAMNVRNFLKEDAMETDTHYHAMHADCLQELRRYLKSGVVLRRTVPPMVQVTRSEASGGSGDRVTITCRASQDVSTAVAWYQQKPGKAPKLLIYSASFLYSGVPSRFSGSGSGTDFTLTISSLQPEDFATYYCQQSYTTPPTFGQGTKVEIKGGSSRSSSSGGGGSGGGGEVQLVESGGGLVQPGGSLRLSCAASGFTFTSTGISWVRQAPGKGLEWVGRIYPTNGSTNYADSVKGRFTISADTSKNTAYLQMNSLRAEDTAVYYCARTYGIYDLYVDYTEYVMDYWGQGTLVTVSSGGSSRSSSSGGGGSGGGGDIQMTQSPSSLSASGGSGQITVTCRASGFYPWNITLSWRQDGVSLSHDTQQWGDVLPDGQGTYQTWVATRISQGEEQRFTCYMEHSGQHSTHPVPSGKGSHHHHHH
notes: also called WED-α1-α2; MICwed
The molecule B9 gave a Kd in experiment [3] of 5.9 nM. In experiment [4], the koff was 0.0017 s⁻¹ and the kon amounted to 290000 M⁻¹ s⁻¹. The IC50 in experiment [2] stood at 4.4 nM.

B10: α1-α2 variant 15 (His-tagged, with attached heterologous polypeptide) (ligand)
chain: B9 chain with K125N, H161R
With B10, the “fold better binding than WT NKG2DL” value in experiment [5] came to 11 fold. This molecule also came in with a Kd in experiment [3] of 1.5 nM. Further, in experiment [4], the koff is 0.00011 s⁻¹ and the kon amounted to 70000 M⁻¹ s⁻¹. Besides, the IC50 in experiment [2] was 1.7 nM.

Source of the values: US20200239541A1 (XYPHOS BIOSCIENCES, published 2020).
